The target of one experiment is Cyno PD1. In words: flow cytometry. In general terms: Flow cytometry measures light scatter and fluorescence of single cells or particles in a stream.
Experiment [1] addresses T1, soluble PD-1 (biotinylated PD-1; expi293 expressed soluble PD1-avi) (UniProt Q15116 25-170, biotinylated (Avidity's biotinylation kit, avi tag) where loaded on SA sensors or used to stain yeast). Description: yeast display flow cytometry.
Experiment [2] concerns the target human PD-1 on cells (transfected Expi293 cells, PHA-cultured T cells, cells of the Promega PD1-PDL1 bioassay, … (UniProt Q15116 25-288)). In words: flow cytometry.
Experiment [3] addresses T1, soluble PD-1 (biotinylated PD-1; …). Description: ELISA; variable antigen coating. In general terms: In an ELISA, binding on a coated surface is turned into a signal by an enzyme label.
For experiment [4] the target is unchanged. Description: ELISA; constant antigen coating.

The values below come from US20220275088A1 (published 2022).

A word on the EC50: it is the concentration that produces a half-maximal response.

T1 sequence (Q15116 25-170): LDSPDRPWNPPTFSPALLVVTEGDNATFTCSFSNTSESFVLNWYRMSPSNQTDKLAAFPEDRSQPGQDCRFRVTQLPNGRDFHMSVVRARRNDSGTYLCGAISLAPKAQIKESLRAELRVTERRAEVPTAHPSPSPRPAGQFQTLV
Chain of human PD-1 on cells (transfected Expi293 cells, PHA-cultured T cells, cells of the Promega PD1-PDL1 bioassay, … (Q15116 25-288): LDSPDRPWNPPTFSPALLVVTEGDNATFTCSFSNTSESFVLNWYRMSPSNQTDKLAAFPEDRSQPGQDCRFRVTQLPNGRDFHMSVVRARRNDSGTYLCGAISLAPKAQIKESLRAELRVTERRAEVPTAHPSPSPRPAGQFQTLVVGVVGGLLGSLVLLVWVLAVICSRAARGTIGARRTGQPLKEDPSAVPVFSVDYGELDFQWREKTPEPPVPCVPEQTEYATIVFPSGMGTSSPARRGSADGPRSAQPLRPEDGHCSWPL

B1: P4#B3 (Fc fusion)
VH: QVQLVQSGGGLVQPGRSLRLSCAASGFTFDDYAMHWVRQAPGKGLEWVSGISWNSGSIGYADSVKGRFTVSRDNAKNSLYLQMNSLRAEDTAVYYCASDYGDKYYYYGMDVWGKGTTVTVSS
VL: QPGLTQPPSASGTPGQRVTISCSGSSSNIGSNTVNWYQQFPGKAPKLLIFNDNQRPSGVPDRFSASKSGTSASLAISGLQSEDEADYYCAAWDGGLNGRGVFGGGTKLTVL
In the experiment with Cyno PD1, B1 yielded an EC50 of 0.072 µg/mL.

B2: P4-B3 scFv (scFv, V domains shown)
VH: B1 VH
VL: B1 VL
Turning to B2, in experiment [1], a half-maximal response (EC50) required 101 nM.

B3: P4-B3 minibody (scFv-Fc) (Fc fusion)
VH: B1 VH
VL: B1 VL
As to B3, in experiment [2], the EC50 is 0.097 µg/mL.

B4: P4-B3 IgG1 wild type monomer (antibody, V domains shown)
VH: B1 VH
VL: QPGLTQPPSASGTPGQRVTISCSGSSSNIGSNTVNWYQQFPGKAPKLLIFNDNQRPSGVPDRFSASKSGTSASLAISGLQSEDEADYYCAAWDGGLNGRGVFGGGTKLTVLG
For the molecule B4, the EC50 stood at 0.514 µg/mL in experiment [3] and 0.0407 µg/mL in experiment [4].
